# Results taken from patent publication US20040072207A1 (WHITEHEAD INSTITUTE FOR BIOMEDICAL RESEARCH, published 2004).
# Target: mTOR (mammalian target of rapamycin), endogenous protein of human cell lines (human, UniProt P42345 1-2549)
# Assay: anti-HA immunoprecipitates from transfected HEK293T cells, mTOR western blot (FIG. 6B)
# Experimental: 3 million HEK293T cells in 6-cm dishes were transfected with plasmid constructs and amounts indicated in the Figure legends using the Lipofectamine 2000 transfection reagent (Life Technology). 24 hours after DNA addition, cells were rinsed once with PBS and lysed in 300 μl of ice-cold Buffer B. Immune complexes were prepared from cleared supernatants using 3 μg polyclonal anti-myc or monoclonal anti-HA antibodies and 20 μl of a 50% slurry protein G-Sepharose. After a 3 hour incubation, immuneprecipitates were washed six times with Buffer B and twice with Wash Buffer 2. Bound proteins were eluted in 1× sample buffer, and mTOR or HA- or myc-tagged proteins were detected by immunoblotting as described (Burnett et al., PNAS 95:1432-143 (1998)).
row,Binder,binding result
1,"HA-raptor mut2 (261DLF263-AAA) (other, not shown: small tags and cut ends) MESEMLQSPLLGLGEEDEADLTDWNLPLAFMKKRHCEKIEGSKSLAQSWRMKDRMKTVSVALVLCLNVGVDPPDVVKTTPCARLECWIDPLSMGPQKALETIGANLQKQYENWQPRARYKQSLDPTVDEVKKLCTSLRRNAKEERVLFHYNGHGVPRPTVNGEVWVFNKNYTQYIPLSIYDLQTWMGSPSIFVYDCSNAGLIVKSFKQFALQREQELEVAAINPNHPLAQMPLPPSMKNCIQLAACEATELLPMIPDLPAAAATSCLTTPIKIALRWFCMQKCVSLVPGVTLDLIEKIPGRLNDRRTPLGELNWIFTAITDTIAWNVLPRDLFQKLFRQDLLVASLFRNFLLAERIMRSYNCTPVSSPRLPPTYMHAMWQAWDLAVDICLSQLPTIIEEGTAFRHSPFFAEQLTAFQVWLTMGVENRNPPEQLPIVLQVLLSQVHRLRALDLLGRFLDLGPWAVSLALSVGIFPYVLKLLQSSARELRPLLVFIWAKILAVDSSCQADLVKDNGHKYFLSVLADPYMPAEHRTMTAFILAVIVNSYHTGQEACLQGNLIAICLEQLNDPHPLLRQWVAICLGRIWQNFDSARWCGVRDSAHEKLYSLLSDPIPEVRCAAVFALGTFVGNSAERTDHSTTIDHNVAMMLAQLVSDGSPMVRKELVVALSHLVVQYESNFCTVALQFIEEEKNYALPSPATTEGGSLTPVRDSPCTPRLRSVSSYGNIRAVATARSLNKSLQNLSLTEESGGAVAFSPGNLSTSSSASSTLGSPENEEHILSFETIDKMRRASSYSSLNSLIGVSFNSVYTQIWRVLLHLAADPYPEVSDVAMKVLNSIAYKATVNARPQRVLDTSSLTQSAPASPTNKGVHIHQAGGSPPASSTSSSSLTNDVAKQPVSRDLPSGRPGTTGPAGAQYTPHSHQFPRTRKMFDKGPEQTADDADDAAGHKSFISATVQTGFCDWSARYFAQPVMKIPEEHDLESQIRKEREWRFLRNSRVRRQAQQVIQKGITRLDDQIFLNRNPGVPSVVKFHPFTPCIAVADKDSICFWDWEKGEKLDYFHNGNPRYTRVTAMEYLNGQDCSLLLTATDDGAIRVWKNFADLEKNPEMVTAWQGLSDMLPTTRGAGMVVDWEQETGLLMSSGDVRIVRIWDTDREMKVQDIPTGADSCVTSLSCDSHRSLIVAGLGDGSIRVYDRRMALSECRVMTYREHTAWVVKASLQKRPDGHIVSVSVNGDVRIFDPRMPESVNVLQIVKGLTALDIHPQADLIACGSVNQFTAIYNSSGELINNIKYYDGFMGQRVGAISCLAFHPHWPHLAVGSNDYYISVYSVEKRVR",no binding
2,"HA-raptor mut 7 (738SLQN741-PAAA) (other, not shown: small tags and cut ends, also called mutant 7) MESEMLQSPLLGLGEEDEADLTDWNLPLAFMKKRHCEKIEGSKSLAQSWRMKDRMKTVSVALVLCLNVGVDPPDVVKTTPCARLECWIDPLSMGPQKALETIGANLQKQYENWQPRARYKQSLDPTVDEVKKLCTSLRRNAKEERVLFHYNGHGVPRPTVNGEVWVFNKNYTQYIPLSIYDLQTWMGSPSIFVYDCSNAGLIVKSFKQFALQREQELEVAAINPNHPLAQMPLPPSMKNCIQLAACEATELLPMIPDLPADLFTSCLTTPIKIALRWFCMQKCVSLVPGVTLDLIEKIPGRLNDRRTPLGELNWIFTAITDTIAWNVLPRDLFQKLFRQDLLVASLFRNFLLAERIMRSYNCTPVSSPRLPPTYMHAMWQAWDLAVDICLSQLPTIIEEGTAFRHSPFFAEQLTAFQVWLTMGVENRNPPEQLPIVLQVLLSQVHRLRALDLLGRFLDLGPWAVSLALSVGIFPYVLKLLQSSARELRPLLVFIWAKILAVDSSCQADLVKDNGHKYFLSVLADPYMPAEHRTMTAFILAVIVNSYHTGQEACLQGNLIAICLEQLNDPHPLLRQWVAICLGRIWQNFDSARWCGVRDSAHEKLYSLLSDPIPEVRCAAVFALGTFVGNSAERTDHSTTIDHNVAMMLAQLVSDGSPMVRKELVVALSHLVVQYESNFCTVALQFIEEEKNYALPSPATTEGGSLTPVRDSPCTPRLRSVSSYGNIRAVATARSLNKPAAALSLTEESGGAVAFSPGNLSTSSSASSTLGSPENEEHILSFETIDKMRRASSYSSLNSLIGVSFNSVYTQIWRVLLHLAADPYPEVSDVAMKVLNSIAYKATVNARPQRVLDTSSLTQSAPASPTNKGVHIHQAGGSPPASSTSSSSLTNDVAKQPVSRDLPSGRPGTTGPAGAQYTPHSHQFPRTRKMFDKGPEQTADDADDAAGHKSFISATVQTGFCDWSARYFAQPVMKIPEEHDLESQIRKEREWRFLRNSRVRRQAQQVIQKGITRLDDQIFLNRNPGVPSVVKFHPFTPCIAVADKDSICFWDWEKGEKLDYFHNGNPRYTRVTAMEYLNGQDCSLLLTATDDGAIRVWKNFADLEKNPEMVTAWQGLSDMLPTTRGAGMVVDWEQETGLLMSSGDVRIVRIWDTDREMKVQDIPTGADSCVTSLSCDSHRSLIVAGLGDGSIRVYDRRMALSECRVMTYREHTAWVVKASLQKRPDGHIVSVSVNGDVRIFDPRMPESVNVLQIVKGLTALDIHPQADLIACGSVNQFTAIYNSSGELINNIKYYDGFMGQRVGAISCLAFHPHWPHLAVGSNDYYISVYSVEKRVR",binds

# Next, values leading:
row,binding result,Binder
1,no binding,"HA-raptor mut3 (313NWIF316-AAAA) (other, not shown: small tags and cut ends) MESEMLQSPLLGLGEEDEADLTDWNLPLAFMKKRHCEKIEGSKSLAQSWRMKDRMKTVSVALVLCLNVGVDPPDVVKTTPCARLECWIDPLSMGPQKALETIGANLQKQYENWQPRARYKQSLDPTVDEVKKLCTSLRRNAKEERVLFHYNGHGVPRPTVNGEVWVFNKNYTQYIPLSIYDLQTWMGSPSIFVYDCSNAGLIVKSFKQFALQREQELEVAAINPNHPLAQMPLPPSMKNCIQLAACEATELLPMIPDLPADLFTSCLTTPIKIALRWFCMQKCVSLVPGVTLDLIEKIPGRLNDRRTPLGELAAAATAITDTIAWNVLPRDLFQKLFRQDLLVASLFRNFLLAERIMRSYNCTPVSSPRLPPTYMHAMWQAWDLAVDICLSQLPTIIEEGTAFRHSPFFAEQLTAFQVWLTMGVENRNPPEQLPIVLQVLLSQVHRLRALDLLGRFLDLGPWAVSLALSVGIFPYVLKLLQSSARELRPLLVFIWAKILAVDSSCQADLVKDNGHKYFLSVLADPYMPAEHRTMTAFILAVIVNSYHTGQEACLQGNLIAICLEQLNDPHPLLRQWVAICLGRIWQNFDSARWCGVRDSAHEKLYSLLSDPIPEVRCAAVFALGTFVGNSAERTDHSTTIDHNVAMMLAQLVSDGSPMVRKELVVALSHLVVQYESNFCTVALQFIEEEKNYALPSPATTEGGSLTPVRDSPCTPRLRSVSSYGNIRAVATARSLNKSLQNLSLTEESGGAVAFSPGNLSTSSSASSTLGSPENEEHILSFETIDKMRRASSYSSLNSLIGVSFNSVYTQIWRVLLHLAADPYPEVSDVAMKVLNSIAYKATVNARPQRVLDTSSLTQSAPASPTNKGVHIHQAGGSPPASSTSSSSLTNDVAKQPVSRDLPSGRPGTTGPAGAQYTPHSHQFPRTRKMFDKGPEQTADDADDAAGHKSFISATVQTGFCDWSARYFAQPVMKIPEEHDLESQIRKEREWRFLRNSRVRRQAQQVIQKGITRLDDQIFLNRNPGVPSVVKFHPFTPCIAVADKDSICFWDWEKGEKLDYFHNGNPRYTRVTAMEYLNGQDCSLLLTATDDGAIRVWKNFADLEKNPEMVTAWQGLSDMLPTTRGAGMVVDWEQETGLLMSSGDVRIVRIWDTDREMKVQDIPTGADSCVTSLSCDSHRSLIVAGLGDGSIRVYDRRMALSECRVMTYREHTAWVVKASLQKRPDGHIVSVSVNGDVRIFDPRMPESVNVLQIVKGLTALDIHPQADLIACGSVNQFTAIYNSSGELINNIKYYDGFMGQRVGAISCLAFHPHWPHLAVGSNDYYISVYSVEKRVR"
2,no binding,"HA-raptor mut 9 (1191RVYDRR1196-DAAADD) (other, not shown: small tags and cut ends) MESEMLQSPLLGLGEEDEADLTDWNLPLAFMKKRHCEKIEGSKSLAQSWRMKDRMKTVSVALVLCLNVGVDPPDVVKTTPCARLECWIDPLSMGPQKALETIGANLQKQYENWQPRARYKQSLDPTVDEVKKLCTSLRRNAKEERVLFHYNGHGVPRPTVNGEVWVFNKNYTQYIPLSIYDLQTWMGSPSIFVYDCSNAGLIVKSFKQFALQREQELEVAAINPNHPLAQMPLPPSMKNCIQLAACEATELLPMIPDLPADLFTSCLTTPIKIALRWFCMQKCVSLVPGVTLDLIEKIPGRLNDRRTPLGELNWIFTAITDTIAWNVLPRDLFQKLFRQDLLVASLFRNFLLAERIMRSYNCTPVSSPRLPPTYMHAMWQAWDLAVDICLSQLPTIIEEGTAFRHSPFFAEQLTAFQVWLTMGVENRNPPEQLPIVLQVLLSQVHRLRALDLLGRFLDLGPWAVSLALSVGIFPYVLKLLQSSARELRPLLVFIWAKILAVDSSCQADLVKDNGHKYFLSVLADPYMPAEHRTMTAFILAVIVNSYHTGQEACLQGNLIAICLEQLNDPHPLLRQWVAICLGRIWQNFDSARWCGVRDSAHEKLYSLLSDPIPEVRCAAVFALGTFVGNSAERTDHSTTIDHNVAMMLAQLVSDGSPMVRKELVVALSHLVVQYESNFCTVALQFIEEEKNYALPSPATTEGGSLTPVRDSPCTPRLRSVSSYGNIRAVATARSLNKSLQNLSLTEESGGAVAFSPGNLSTSSSASSTLGSPENEEHILSFETIDKMRRASSYSSLNSLIGVSFNSVYTQIWRVLLHLAADPYPEVSDVAMKVLNSIAYKATVNARPQRVLDTSSLTQSAPASPTNKGVHIHQAGGSPPASSTSSSSLTNDVAKQPVSRDLPSGRPGTTGPAGAQYTPHSHQFPRTRKMFDKGPEQTADDADDAAGHKSFISATVQTGFCDWSARYFAQPVMKIPEEHDLESQIRKEREWRFLRNSRVRRQAQQVIQKGITRLDDQIFLNRNPGVPSVVKFHPFTPCIAVADKDSICFWDWEKGEKLDYFHNGNPRYTRVTAMEYLNGQDCSLLLTATDDGAIRVWKNFADLEKNPEMVTAWQGLSDMLPTTRGAGMVVDWEQETGLLMSSGDVRIVRIWDTDREMKVQDIPTGADSCVTSLSCDSHRSLIVAGLGDGSIDAAADDMALSECRVMTYREHTAWVVKASLQKRPDGHIVSVSVNGDVRIFDPRMPESVNVLQIVKGLTALDIHPQADLIACGSVNQFTAIYNSSGELINNIKYYDGFMGQRVGAISCLAFHPHWPHLAVGSNDYYISVYSVEKRVR"
